The values below come from patent US20150152398, “Endoribonuclease and Methods of Use Thereof” (The Regents of the University of California, published 2015).

Residue numbers refer to the chain shown, from its start.

One data set addresses T1, TtCas6A H37A (Thermus thermophilus HB8, H37A).
T1 chain: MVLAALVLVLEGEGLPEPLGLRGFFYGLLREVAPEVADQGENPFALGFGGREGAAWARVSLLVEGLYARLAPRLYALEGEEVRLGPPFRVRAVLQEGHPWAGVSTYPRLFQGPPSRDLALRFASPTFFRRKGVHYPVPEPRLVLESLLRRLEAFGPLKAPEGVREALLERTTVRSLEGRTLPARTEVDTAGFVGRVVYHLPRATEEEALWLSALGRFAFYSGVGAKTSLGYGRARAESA
The experiment in a line: cleavage_in_vitro; almost inactive; rate enhanced about 360-fold with 500 mM imidazole. The following applies: chain copies: 2 inferred; hairpin. An excerpt:
(§1) Sites of cleavage are indicated with blue arrows. TtCas6e (TTHB192) cleaves repeat R2, while TtCas6A (TTHA0078) and TtCas6B (TTHB231) both cleave repeats R1 and R3. (B) Cleavage product binding affinities of TtCas6A and TtCas6B enzymes. Maltose binding protein (MBP)-fused TtCas6A or TtCas6B were bound to in 5′-radiolabelled, vitro transcribed R1 and R3 RNAs. Bound and unbound fractions were resolved by electrophoresis on a native polyacrylamide gel and visualized by phosphorimaging. The data for these and all subsequent binding assays were fit with standard binding isotherms (solid line). Error bars on each data point denote standard error of the mean (SEM) from three independent experiments. (C) Experiments to confirm single turnover. RNA cleavage assays were carried out at indicated protein:RNA ratios. RNA cleavage was monitored using denaturing polyacrylamide gel electrophoresis. […]
(§2) To shed light on the catalytic mechanism of TtCas6A and TtCas6B, we performed cleavage assays using wild type proteins as well as active site mutants TtCas6A H37A and TtCas6B H42A using repeat R1 as a substrate (FIG. 2C). The first order rate constant determined under single-turnover conditions for wild type TtCas6A (3.2 min⁻¹) and TtCas6B (3.7 min⁻¹) are in good agreement with first order rate constants previously determined for PaCas6f and TtCas6e. […]

For a further data set, the target named is T2, TtCas6B H42A (Thermus thermophilus HB8, H42A).
T2 chain: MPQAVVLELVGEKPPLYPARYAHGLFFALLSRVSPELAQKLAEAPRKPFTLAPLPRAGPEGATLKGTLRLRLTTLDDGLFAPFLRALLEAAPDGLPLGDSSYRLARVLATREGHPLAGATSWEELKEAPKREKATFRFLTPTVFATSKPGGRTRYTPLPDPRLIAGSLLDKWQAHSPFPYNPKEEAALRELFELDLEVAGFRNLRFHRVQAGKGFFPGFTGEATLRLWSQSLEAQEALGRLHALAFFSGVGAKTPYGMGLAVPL
The experiment in a line: cleavage_in_vitro; repeat R1. The following applies: chain copies: 2 inferred; hairpin.
Source text: as §1, with “FIG. 22 illustrates that TtCas6A and TtCas6B both cleave repeats R1 and R3 and retain their cleaved products. (A) Sequences and predicted secondary structures of T. thermophilus CRISPR repeats. Sites” for “Sites”, “Error bars on each data point denote standard error of the mean (SEM) from three independent experiments. (C) Experiments to confirm single turnover. RNA cleavage assays were carried out at indicated protein:RNA ratios.” left out
as §2

Data set [1] concerns the target T3, TtCas6A (TTHA0078, Cas6) (Thermus thermophilus HB8).
T3 chain: T1 chain with A37H
Kind of data set: EMSA; Kd in FIG. 25D only. The following applies: chain copies: 2 stated (dimer in solution); hairpin.

The target of a further data set is T4, TtCas6B (TTHB231, Cas6) (Thermus thermophilus HB8).
T4 chain: T2 chain with A42H
Kind of data set: structure; crystal structure of R3 product complex, 2:2. The following applies: chain copies: 2 stated (dimer in solution); label: 5'-32P (EMSA); hairpin.

For data set [2], the target named is T3, TtCas6A (TTHA0078, Cas6). Kind of data set: structure; crystal structure of cleaved R1 product complex, 2:1 in crystal. The following applies: chain copies: 2 stated (dimer in solution); label: 5'-32P (EMSA); hairpin. An excerpt: (§3) To determine how TtCas6A and TtCas6B bind and cleave their RNA substrates, we solved crystal structures of these proteins both alone and in complexes with their cognate RNAs (FIG. 23A, FIG. 30). For TtCas6A, we obtained a structure of the enzyme bound to a substrate mimic based on the R1 repeat sequence, consisting of the R1 stem-loop flanked by two additional nucleotides on either end of the stem. Cleavage of the substrate mimic RNA was prevented by introducing a 2′-deoxyribonucleotide at the G28 position, thereby removing the 2′-hydroxyl nucleophile required for the cleavage reaction. In addition to the substrate mimic complex, a crystal structure of a complex of TtCas6A and a cleaved RNA product was obtained when full-length R1 repeat was bound to wild-type TtCas6A and allowed to undergo cleavage during subsequent complex purification and crystallization. Finally, we determined the crystal structure of the TtCas6A H37A mutant, lacking a critical active site residue, in the absence of bound RNA. For TtCas6B, we determined crystal structures of the wild-type enzyme alone and in complex with a product of the R3 repeat cleavage reaction.

Data set [3] concerns the target T3, TtCas6A (TTHA0078, Cas6). The experiment in a line: 5' truncation series, FIG. 5. The following applies: chain copies: 2 stated (dimer in solution); hairpin.
Data set [4] concerns the target T3, TtCas6A (TTHA0078, Cas6). The experiment in a line: EMSA; deletion of nt 1-8 had little effect on affinity. The following applies: chain copies: 2 stated (dimer in solution); hairpin.
The target in data set [5] is T3, TtCas6A (TTHA0078, Cas6). Kind of data set: structure; crystal structure of substrate mimic complex, 2:1 in crystal. The following applies: chain copies: 2 stated (dimer in solution); hairpin.
Source text: as §3

As for GUUGCAAGGGAUUGAGCCCCGUAAGGGGAU (ssRNA) [R1 nt 1-30], the activity with TtCas6A H37A is around 17000 fold cleavage defect; in the data set with TtCas6B H42A, around 300 fold cleavage defect.
Turning to GAGCCCCGUAAGGGGAU (ssRNA) [R1 deletion of nt 1-13], the “fold increase in Kd relative to full R1” value in the data set with TtCas6A (TTHA0078, Cas6) [1] was ~900 fold higher Kd than full R1.
Consider GUUGCAAACCUCGUUAGCCUCGUAGAGGAUUGAAAC (ssRNA) [R3 repeat RNA (Tt_R2 in Example 1)], for which the binding result in the data set with TtCas6B (TTHB231, Cas6) is “binds”.
GUUGCAAGGGAUUGAGCCCCGUAAGGGGAUUGCGAC (ssRNA) [R1 repeat RNA (Tt_R1)]: in the data set with TtCas6A (TTHA0078, Cas6) [2], the binding result was “binds”.
Regarding AGGGAUUGAGCCCCGUAAGGGGA (ssRNA) [R1 nt 7-29], the binding signal with TtCas6A (TTHA0078, Cas6) [3] is 2.3 fold stronger than nt 8-29.
Regarding GGAUUGAGCCCCGUAAGGGGAU (ssRNA) [R1 deletion of nt 1-8], the binding result in the data set with TtCas6A (TTHA0078, Cas6) [4] is “binds”.
As for AGCCCCGUAAGGGGAU (ssRNA, 2'-deoxy at G28) [R1 substrate mimic (nt 15-30, 2'-deoxy G28)], the binding result in the data set with TtCas6A (TTHA0078, Cas6) [5] is “binds”.
